This is an account of results in patent publication US20200255508A1 (AbbVie / Abbott, published 2020).

Test [1] has as its target T1, mouse DLL4 on the cell surface (mouse, UniProt Q9JI71 27-686).
T1 construct: whole, on cells; also called HEK293-mDLL4; mDLL4-293G
The test can be described thus: competition FACS, competitor huNotch-1.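 Note: stable cell lines displaying human or mouse DLL4 on their surface, Notch binding detected by flow cytometry via R-phycoerythrin streptavidin fluorescence.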
Experimental: (§1) Notch blocking assay: Briefly, stable cell lines overexpressing cell-surface DLL4 were harvested from tissue culture flasks and re-suspended in phosphate buffered saline (PBS) containing 1% bovine serum albumin and 1 mM CaCl₂ (FACS buffer). HEK293-hDLL4 or HEK293-mDLL4 cells were dispensed into 96-well plate (v-bottom) at 1.5×10⁵ cells/well in FACS buffer. […] After washing the cells two times with FACS buffer, 50 μL of R-phycoerythrin-conjugated streptavidin (1:150 dilution in FACS buffer) (Jackson ImmunoResearch, West Grove, Pa., US, catalog no. 016-110-084) were added. Following an incubation on ice (4° C., 60 minutes), cells were washed three times and resuspended in FACS buffer. Fluorescence was measured using a Becton Dickinson FACSCalibur-HTS (Becton Dickinson, San Jose. Calif.).

In test [2] the target is T2, human DLL4 on the cell surface (human, UniProt Q9NR61 27-685).
T2 construct: whole, on cells; also called HEK293-hDLL4; hDLL4-293G
Kind of test: competition FACS, competitor huNotch-1.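 Note: stable cell lines displaying human or mouse DLL4 on their surface, Notch binding detected by flow cytometry via R-phycoerythrin streptavidin fluorescence.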
Experimental: as §1

The target in test [3] is T3, mouse DLL4 extracellular domain (mouse, UniProt Q9JI71 27-532).
T3 construct: extracellular domain; also called muDLL4 ECD; Mouse DLL4 ECD
T3 sequence (Q9JI71 27-532): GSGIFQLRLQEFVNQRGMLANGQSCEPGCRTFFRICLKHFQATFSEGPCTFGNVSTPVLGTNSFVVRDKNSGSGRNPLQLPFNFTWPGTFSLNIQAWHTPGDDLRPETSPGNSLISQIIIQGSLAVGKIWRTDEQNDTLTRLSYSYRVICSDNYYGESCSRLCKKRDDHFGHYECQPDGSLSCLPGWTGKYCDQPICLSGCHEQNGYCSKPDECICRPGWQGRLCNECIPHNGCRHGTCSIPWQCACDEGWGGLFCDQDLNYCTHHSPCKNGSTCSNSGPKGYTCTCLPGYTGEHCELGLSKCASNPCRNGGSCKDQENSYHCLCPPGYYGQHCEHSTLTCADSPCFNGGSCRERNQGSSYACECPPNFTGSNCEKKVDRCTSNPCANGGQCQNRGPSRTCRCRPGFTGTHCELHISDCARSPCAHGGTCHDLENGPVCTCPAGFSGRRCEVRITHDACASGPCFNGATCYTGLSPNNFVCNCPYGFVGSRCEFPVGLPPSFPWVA
The test can be described thus: Biacore SPR.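 Note: surface plasmon resonance on a Biacore instrument, antibodies captured on immobilized anti-human Fc, purified recombinant DLL4 extracellular domain injected as analyte, binding followed over time.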

For test [4], the target named is T4, human DLL4 extracellular domain (human, UniProt Q9NR61 27-529).
T4 construct: extracellular domain; coated on plates in the sVEGFR1 assay; also called huDLL4 ECD; Human DLL4 ECD
The test can be described thus: Biacore SPR.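 Note: surface plasmon resonance on a Biacore instrument, antibodies captured on immobilized anti-human Fc, purified recombinant DLL4 extracellular domain injected as analyte, binding followed over time.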

Test [5] has as its target T1, mouse DLL4 on the cell surface. The test can be described thus: FACS on DLL4 cells.
Test [6] has as its target T2, human DLL4 on the cell surface. The test can be described thus: FACS on DLL4 cells.
For test [7] the target is unchanged. The test can be described thus: cell-based or functional assay.

T1 sequence (Q9JI71 27-686): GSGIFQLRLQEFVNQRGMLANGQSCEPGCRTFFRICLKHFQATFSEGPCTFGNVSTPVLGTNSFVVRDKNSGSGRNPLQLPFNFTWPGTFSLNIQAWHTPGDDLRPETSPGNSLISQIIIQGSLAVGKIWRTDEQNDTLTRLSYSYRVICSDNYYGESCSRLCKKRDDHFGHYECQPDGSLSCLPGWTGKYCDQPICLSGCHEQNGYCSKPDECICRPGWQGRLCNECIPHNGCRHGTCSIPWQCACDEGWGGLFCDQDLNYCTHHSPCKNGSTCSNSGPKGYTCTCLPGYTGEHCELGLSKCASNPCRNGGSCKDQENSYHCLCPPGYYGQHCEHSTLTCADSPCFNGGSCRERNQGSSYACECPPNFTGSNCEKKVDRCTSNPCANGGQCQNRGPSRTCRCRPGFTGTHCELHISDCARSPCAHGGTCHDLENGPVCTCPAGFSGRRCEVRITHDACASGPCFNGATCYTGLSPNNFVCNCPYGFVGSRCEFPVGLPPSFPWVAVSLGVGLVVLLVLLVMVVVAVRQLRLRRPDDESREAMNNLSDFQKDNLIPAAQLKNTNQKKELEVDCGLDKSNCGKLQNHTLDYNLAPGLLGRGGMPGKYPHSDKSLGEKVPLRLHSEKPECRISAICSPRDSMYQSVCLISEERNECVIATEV

B1: E9.4 (antibody, V domains shown)
VH: EVQLQESGPGLVKPSETLSLTCTVSGGSISSSSYYWGWIRQPPGKGLEWIGDIYYTGSTYYNPSLKSRVTISVDTSKNQFSLKLSSVTAADTAVYYCARYDVSLGGSSDHWGQGTLVTVSS
VL: SYELTQPPSVSVSPGQTASITCSGQRLGDKYASWYQQKPGQSPVLVIYEDSKRPSGIPERFSGSNSGDTATLTISGTQPMDEADYYCQAWDRDTGVFGYGTKVTVL
notes: also called DLL4-E9-4 hIgG1/L
Take B1: the IC50 is 0.3 nM in test [1] and 4.3 nM in test [2]. The results for the Kd in test [3] and in test [4] were 1.12 nM and 0.58 nM, respectively. Further, the values for the koff in test [3] and in test [4] were 6.01e-05 s⁻¹ and 3.31e-05 s⁻¹, respectively. The on-rate (kon) in test [3] amounted to 53800 M⁻¹ s⁻¹; in test [4], 56700 M⁻¹ s⁻¹. Moreover, the EC50 in test [5] turned out to be 0.63 nM; in test [6], 1.63 nM.

B2: E9.71(M)-3 (antibody, human IgG1, V domains shown)
VH: EVQLQESGPGLVKPSETLSLTCTVSGGSISSSSYYWGWIRQPPGKGLEWIGDIYYTGSTYYNPSLKSRVTISVDTSKNQFSLKLSSVTAADTAVYYCARQALAMGGGSDKWGQGTLVTVSS
VL: YELTQPPSVSVSPGQTASITCSGQRLGDKYASWYQQKPGQSPVLVIYEDSKRPSGIPERFSGSNSGDTATLTISGTQPMDEADYYCQAWDRDTGVFGGGTKLTVLG
Regarding B2, the “Inhibition of Notch activation via huDLL4 cells, coculture (IC50, nM)” value (from here on “Inhibition”) in test [7] is 0.65 nM.

B3: E9.12B (antibody, V domains shown)
VH: EVQLQESGPGLVKPSETLSLTCTVSGGSISSSNYYWGWIRQPPGKGLEWIGDIYYTGSTYYNPSLKSRVTISVDTSKNQFSLKLSSVTAADTAVYYCAREAVSFGGGADSWGQGTLVTVSS
VL: SYELTQPPSVSVSPGQTASITCSGDGLGDKYVSWYQQKPGQSPVLVIYEDSTRPSGIPERFSGSNSGDTATLTISGTQPMDEADYYCQAWDSESGVFGSGTKVT
For the molecule B3, the half-maximal inhibitory concentration (IC50) in test [1] was 0.37 nM; in test [2] it was 4.44 nM. Also, the results for the dissociation constant Kd in test [3] and in test [4] were 0.18 nM and 0.02 nM, respectively. The koff came out at 1.47e-05 s⁻¹ in test [3] and 3.1e-06 s⁻¹ in test [4]. The kon in test [3] is 83500 M⁻¹ s⁻¹; in test [4] it was 151000 M⁻¹ s⁻¹. Moreover, the values for the EC50 in test [5] and in test [6] were 0.71 nM and 3.34 nM, respectively.

B4: E9.10H (antibody, V domains shown)
VH: EVQLQESGPGLVKPSETLSLTCTVSGGSISSSGYYWGWIRQPPGKGLEWIGDIYYTGNTYYNPSLKNRVTISVDTSKNQFSLKLSSVTAADTAVYYCAREEVILGGGADQWGQGTLVTVSS
VL: SYELTQPPSVSVSPGQTASITCSGESLGDKYVSWYQQKPGQSPVLVIYEDSKRPSGIPERFSGSNSGDTATLTISGTQAMDEADYYCQAWDGETGVFGSGTKVT
With B4, the IC50 was determined as 0.6 nM in test [1] and 5.65 nM in test [2]. Besides, the Kd in test [3] was 0.34 nM; in test [4], 0.57 nM. Also, the values for the koff in test [3] and in test [4] were 2.23e-05 s⁻¹ and 5.9e-05 s⁻¹, respectively. Further, the kon was found to be 65300 M⁻¹ s⁻¹ in test [3] and 104000 M⁻¹ s⁻¹ in test [4]. For the same molecule, the EC50 in test [5] came out at 0.82 nM; in test [6], 3.52 nM.

B5: E9.22 (antibody, V domains shown)
VH: EVQLQESGPGLVKPSETLSLTCTVSGGSISNSRYHWGWIRQPPGKGLEWIGDIYYTGSTYYNPSLKGRVTISVDTSKNQFSLKLSSVTAADTAVYYCAREDVILRGGSDYWGQGTLVTVSS
VL: SYELTQPPSVSVSPGQTASITCSGQRLGDKYASWYQQKPGQSPVLVIYEDSKRPSGIPERFSGSNSGDTATLTISGTQPMDEADYYCQAWDRDTGVFGYGTKVTVL
notes: also called DLL4-E9-22 hIgG1/L
Turning to B5, the IC50 in test [1] is 2.63 nM; in test [2], 21.1 nM. Moreover, the results for the Kd in test [3] and in test [4] were 3.5 nM and 8.46 nM, respectively. The figures for the koff in test [3] and in test [4] were 0.000133 s⁻¹ and 0.000331 s⁻¹, respectively. Further, the values for the kon in test [3] and in test [4] were 37800 M⁻¹ s⁻¹ and 39100 M⁻¹ s⁻¹, respectively. Further, the results for the EC50 in test [5] and in test [6] were 37.4 nM and 34.3 nM, respectively.

B6: E9.11 (antibody, V domains shown)
VH: EVQLQESGPGLVKPSETLSLTCTVSGGSISSSSYYWGWIRQPPGKGLEWIGDIYYTGSTYYNPSLKSRVTISVDTSKNQFSLKLSSVTAADTAVYYCAREAVPLGGGSDYWGQGTLVTVSS
VL: SYELTQPPSVSVSPGQTASITCSGQRLGDKYASWYQQKPGQSPVLVIYEDSKRPSGIPERFSGSNSGDTATLTISGTQPMDEADYYCQAWDRDTGVFGYGTKVTVL
notes: also called DLL4-E9-11 hIgG1/L
Take B6: the IC50 is 2.06 nM in test [1] and 14.8 nM in test [2]. Besides, the Kd in test [3] was 0.5 nM; in test [4] it was 0.48 nM. Further, the koff stood at 1.39e-05 s⁻¹ in test [3] and 1.74e-05 s⁻¹ in test [4]. The on-rate (kon) in test [3] came out at 27700 M⁻¹ s⁻¹; in test [4], 36300 M⁻¹ s⁻¹. For the same molecule, the results for the EC50 in test [5] and in test [6] were 1.45 nM and 4.46 nM, respectively.

B7: E9.5E (antibody, V domains shown)
VH: EVQLQESGPGLVKPSETLSLTCTVSGGSISSSSYYWGWIRQPPGKGLEWIGDINYIGSTYYNPSLKSRVTISVDTSKNQFSLKLSSVTAADTAVYYCARESVPLGGGADEWGQGTLVTVSS
VL: SYELTQPPSVSVSPGQTASITCSGDMLGDKYVSWYQQKPGQSPVLVIYEDSQRPSGIPERFSGSNSGDTATLTISGTQPMDEADYYCQAWDSETGVFGSGTKVT
Turning to B7, the IC50 in test [1] was 0.34 nM; in test [2] it was 3.76 nM. In addition, the values for the Kd in test [3] and in test [4] were 0.02 nM and 0.04 nM, respectively. The koff in test [3] was 2e-06 s⁻¹; in test [4], 6e-06 s⁻¹. Further, the values for the kon in test [3] and in test [4] were 89000 M⁻¹ s⁻¹ and 150000 M⁻¹ s⁻¹, respectively. Moreover, the EC50 in test [5] came to 0.89 nM; in test [6], 2.7 nM.

B8: E9.17 (antibody, V domains shown)
VH: EVQLQESGPGLVKPSETLSLTCTVSGGSISSSSYYWGWIRQPPGKGLEWIGDIYYTGSTYYNPSLKSRVTISVDTSKNQFSLKLSSVTAADTAVYYCAREEAILGGGSDYWGQGTLVTVSS
VL: SYELTQPPSVSVSPGQTASITCSGQRLGDKYASWYQQKPGQSPVLVIYEDSKRPSGIPERFSGSNSGDTATLTISGTQPMDEADYYCQAWDRDTGVFGYGTKVTVL
notes: also called DLL4-E9-17 hIgG1/L
B8 had an IC50 in test [2] of 19.8 nM. In addition, in test [3], the dissociation constant (Kd) was determined as 0.38 nM, the off-rate (koff) was 1.41e-05 s⁻¹ and the on-rate constant (kon) turned out to be 37000 M⁻¹ s⁻¹. In test [4], this molecule displayed a Kd of 0.1 nM, a koff of 4.4e-06 s⁻¹ and a kon of 43900 M⁻¹ s⁻¹. The “Inhibition” value in test [7] was 1 nM. In addition, the EC50 in test [5] came out at 2.57 nM. The molecule further gave a concentration for a half-maximal effect (EC50) in test [6] of 8 nM.

B9: E9.10E (antibody, V domains shown)
VH: EVQLQESGPGLVKPSETLSLTCTVSGGSINSGNYYWGWIRQPPGKGLEWIGDISYTGSTYYNPSLKSRVTISVDTSKNQFSLKLSSVTAADTAVYYCAREDVMYGGGGDSWGQGTLVTVSS
VL: SYELTQPPSVSVSPGQTASITCSGEGLGDKYVSWYQQKPGQSPVLVIYEDSERPSGIPERFSGSNSGDTATLTISGTQAMDEADYYCQAWDSEAGVFGSGTKVT
As to B9, the figures for the half-maximal inhibitory concentration (IC50) in test [1] and in test [2] were 0.36 nM and 3.83 nM, respectively. The figures for the dissociation constant (Kd) in test [3] and in test [4] were 0.62 nM and 0.21 nM, respectively. The koff turned out to be 9.41e-05 s⁻¹ in test [3] and 4.62e-05 s⁻¹ in test [4]. For the same molecule, the kon stood at 151000 M⁻¹ s⁻¹ in test [3] and 218000 M⁻¹ s⁻¹ in test [4]. Besides, the figures for the EC50 in test [5] and in test [6] were 1.19 nM and 5.1 nM, respectively.

B10: E9.38 (antibody, V domains shown)
VH: EVQLQESGPGLVKPSETLSLTCTVSGGSISSSSYYWGWIRQPPGKGLEWIGDIYYTGSTYYNPSLKSRVTISVDTSKNQFSLKLSSVTAADTAVYYCAREDVILRGGSDYWGQGTLVTVSS
VL: SYELTQPPSVSVSPGQTASITCSGQRLGDKYVSWYQQKPGQSPVLVIYEDSKRPSGIPERFSGSNSGDTATLTISGTQPMDEADYYCQAWDRDVGVFGSGTKVTVL
notes: also called DLL4-E9-38 hIgG1/L
In the case of B10, the IC50 in test [1] is 1.2 nM; in test [2], 7.76 nM. Moreover, the figures for the Kd in test [3] and in test [4] were 9.27 nM and 2.75 nM, respectively. The koff in test [3] was determined as 0.000171 s⁻¹; in test [4], 3.48e-05 s⁻¹. Besides, the on-rate constant (kon) was found to be 18400 M⁻¹ s⁻¹ in test [3] and 12700 M⁻¹ s⁻¹ in test [4]. Moreover, the EC50 in test [5] came out at 0.13 nM; in test [6] it was 1.66 nM.

B11: E9.71(L) (antibody, human IgG1, V domains shown)
VH: EVQLQESGPGLVKPSETLSLTCTVSGGSISSSSYYWGWIRQPPGKGLEWIGDIYYTGSTYYNPSLKSRVTISVDTSKNQFSLKLSSVTAADTAVYYCARQALALGGGSDKWGQGTLVTVSS
VL: SYELTQPPSVSVSPGQTASITCSGQRLGDKYASWYQQKPGQSPVLVIYEDSKRPSGIPERFSGSNSGDTATLTISGTQPMDEADYYCQAWDRDTGVFGGGTKLTVLG
notes: Methionine in CDR-H3 of E9-71 changed to leucine
Consider B11, for which the IC50 in test [1] stood at 0.21 nM; in test [2] it was 1.82 nM. The “Inhibition” value in test [7] worked out at 2.4 nM. Besides, the EC50 amounted to 0.47 nM in test [5] and 0.22 nM in test [6].

B12: E9.66 (antibody, V domains shown)
VH: EVQLQESGPGLVKPSETLSLTCTVSGGSISSSSYYWGWIRQPPGKGLEWIGDIYYTGSTYYNPSLKSRVTISVDTSKNQFSLKLSSVTAADTAVYYCAREGVPLGGGADKWGQGTLVTVSS
VL: SYELTQPPSVSVSPGQTASITCSGQRLGDKYASWYQQKPGQSPVLVIYEDSKRPSGIPERFSGSNSGDTATLTISGTQPMDEADYYCQAWDRDTGVFGYGTKVTVL
notes: also called DLL4-E9-66 hIgG1/L
Turning to B12, the IC50 in test [1] amounted to 0.99 nM; in test [2] it was 5.03 nM. Further, the Kd in test [3] was 0.5 nM; in test [4], 0.078 nM. Also, the figures for the koff in test [3] and in test [4] were 1.44e-05 s⁻¹ and 2.5e-06 s⁻¹, respectively. Moreover, the kon turned out to be 28900 M⁻¹ s⁻¹ in test [3] and 32600 M⁻¹ s⁻¹ in test [4]. Also, the EC50 was 0.7 nM in test [5] and 2.02 nM in test [6].
